# From the DeepSol protein solubility set
# Assay: soluble on expression in E. coli; label from the status in PepcDB or PDB records
row,Sequence,soluble on expression in E. coli
1,MGSDKIHHHHHHMKRIDLNGFWSVRDNEGRFSFEGTVPGVVQADLVRKGLLPHPYVGMNEDLFKEIEDREWIYEREFEFKEDVKEGERVDLVFEGVDTLSDVYLNGVYLGSTEDMFIEYRFDVTNVLKEKNHLKVYIKSPIRVPKTLEQNYGVLGGPEDPIRGYIRKAQYSYGWDWGARIVTSGIWKPVYLEVYRARLQDSTAYLLELEGKDALVRVNGFVHGEGNLIVEVYVNGEKIGEFPVLEKNGEKLFDGVFHLKDVKLWYPWNVGKPYLYDFVFVLKDLNGEIYREEKKIGLRRVRIVQEPDEEGKTFIFEINGEKVFAKGANWIPSENILTWLKEEDYEKLVKMARSANMNMLRVWGGGIYEREIFYRLCDELGIMVWQDFMYACLEYPDHLPWFRKLANEEARKIVRKLRYHPSIVLWCGNNENNWGFDEWGNMARKVDGINLGNRLYLFDFPEICAEEDPSTPYWPSSPYGGEKANSEKEGDRHVWYVWSGWMNYENYEKDTGRFISEFGFQGAPHPETIEFFSKPEEREIFHPVMLKHNKQVEGQERLIRFIFGNFGKCKDFDSFVYLSQLNQAEAIKFGVEHWRSRKYKTAGALFWQFNDSWPVFSWSAVDYFKRPKALYYYARRFFAEVLPVLKKRDNKIELLVVSDLRETKEVSLRLAAYEKKGEKVFEKTYRTVLPADGVSLVDRVELPDDLFFFVEAEVDGVKYRNYRVFRKWRDLELPDPEISLEDMGELIELTAQRPAFGVKILSDEVPEDDFLFLEPGRSITLKKPDGVRGVKSLFDYLR,not soluble
2,MGSDKIHHHHHHMKRLAFVISSLGAGGAEKVLSLMSHYLAQKGISLTLISLGDSKSFYPLPAQAKIIALGECRSSKGVIDSLFQNLRRIQKLRQALRAARPDLILSFMTETNILSIIAAKSLGIPVIASEHTNYLWQPSRLWNRLRHLLYPLASATTLLTQRDKENHYGFLPQAKILPNPFDFPPLSPTPKEKIILGVGRLIKDKGFDRLIRAFSRISIGDYQLLIAGEGEERVRLEELIQSLGMEEKIHLLGSQKEIYPLYERASIFVLSSSMEGLSNALIEAMSMGCAVISFDCPYGPSEVITPQENGLLVPLHDEVALQEAMERLIQEEPLRQKLSQNAPKVRERFAIDRVMPQWEELMRSILDSTPSCSKES,not soluble
3,MGSDKIHHHHHHMKRMTKIGIYGMAVWMLSACGNGTPDYDATGTFEATEVIVSAEAAGKLLQLEVEEGTRLKAGEEVGLVDTVQLYLKKLQLEASMKSVESQRPDLAKQIAATKQQITTAQREKKRVENLLAAGAANQKQLDDWDAQVTLLQQQLIAQESSLMKSTNSLTEQGNSVSIQVAQVEDQLNKCHIQSPIEGTVLAKYAEGGELASVGKPLFKVGEVDRMYLRAYVTSEQLSQVKLGDKVTVYSDYGNSEQKAYPGVVTWISDRSEFTPKTILTKNERANLVYAVKIAVKNDGSLKIGMYGGVVWKKENP,not soluble
4,MGSDKIHHHHHHMKRTPGPNKRGSKRMQPNLKFSRGEFADRLAKTRRAMEARGVDLLIVSDPSNMAWLTGYDGWSFYVHQAVIVPPSGEPVWYGRGQDANGAKRTAYLAQNNIVGYADHYVQSTERHPMDFLSSVLSDRGWGKLTIGVEMDNYWFSAAAFASLQKHLPNARFVDATALVNWQRAVKSPTEIDYMRKAARIVEAMHQRIFDRIEIGMRKCDLVAEIYDAGTRGVDGIGGDYPAIVPLLPSGVDASAPHLTWDDQPMKRGEGTFFEIAGCYNRYHCPLSRTVFLGKPTQEFLDAEKATLEGMEAGLAAAKPGNACEDIANAFFAVLKKYGIVKDNRTGYSIGLSYPPDWGERTMSLRPGDHTELKPGMTFHFMTGLWLETMGLEITESILITETGVECLANVPRKLVVKN,not soluble
5,MGSDKIHHHHHHMKSIMDSLFDSPVQTARSSSDSDAHNFFKAGPYAPLAARMRPQSLDEVVGQRHLLDSGKPLQRLIAGSGDASVILYGPPGTGKTTIASLISAGTGHEFVGLSALNSGVKEIREVIDQARRNLIHGKRTVLFIDEVHRFSKTQQDALLAAVENRTVLLVAATTENPSFSVVAPLLSRSLILQLKPLTHDDIKTVLLHALQDKRGLDNRITISDEALEQLVLLSGGDARRSLTYLEAASESLADGEELTPEIIRHNVDKAIVRYDRDGDQHYDVVSAFIKSMRGSDVDAALHYLARMIDAGEDPRFIARRLVIHASEDVGMADPQALSVAVAASQAVALIGMPEARINLAQATIHLATAPKSNAVITAIDAALADVKQGKTGPVPAHLRDGHYAGAKQLGNAVGYKYPHDDPRGIVEQQYIPNGLEDVVYYRPSEHGAEQRIESYLGKLRRIVRGQRR,not soluble
6,MGSDKIHHHHHHMKSIPSLDDLDLFARIAQAGGLAVVARQSGVSVPTLSRRMRALELQIGVHLFERGSHGYRVTALGRAFLSETRAFQAEAQRLRRMVATPLMAEVRITAGSWTSAFLAQQLPRFWQEDAQWRPAFLEADTRLDIARRGADIGIRNQRPEQAWLAGRYTGLITYAVYAISDQVRGYVVLPENQAKTPSARWVWSHHGGEVAATARSPRMVADLACAGVGQVVLPRFAAAMFPALQQVGPEIAELSHEEWLVCHHDGRHDPPVRAALEGIAAVLTDTTLRPIGA,not soluble
7,MGSDKIHHHHHHMKSKANQSQGLLLFRLSQHQIFALGTLKIRELVPYTPLSKIPQSHPTILGAATIRGHTIPVVDMAAAIGYRPVSDEERQHCYIIITDCQRMIIGFLVRAIDKIIECNWRDIEAPSANLGKNAFLTGVTRYDNQLVQLLDVELLLSKVFPDAPEANRAILTDVQREKLKPRRILLVDDSKVARKQLSDALDSINIPYFVTPDGREALSIMEQAAAEHHPIDILVSDIEMPGLDGYELAFEVRDNPLLANAYIILHTSLSSEISVSQAHQVGANEALTKFDAHELVEAMLRGAELAAKRAN,not soluble
8,MGSDKIHHHHHHMKSRKFPIRFENFSLSVDGKSVLENITLSFVEGMNVLYGPRGSGKSSLLRSIVKLNTEIFNEISRSGSVYLFDQNVEDLDDIYVRKNALYLDTSFIDAMNQYTFDEFLKLALKRKISLENFSEKLDDLGILRMLIRGQKTPLSVFSPAEKISLLLFILEQKKPRVILMDCLLDHLDDENLEKIMDMFLKMKEERTFVISTRILQRFLYIADLLVILNNGRINYTGSPKDFVLRM,not soluble
9,MGSDKIHHHHHHMKSTIYKALIGATLIIGLSSCVNNWLDVEPGDQVEADEAVTTSADLSSVRAGMYQIIKGTSDFKDYYAARMFYYGEVRGEDMQTEKSGSRSQLCYDMTYSTADNAPSIWQTPYIVIGRANRIIEAAESGKLTDKEEAADIIAQYAAEAKVARAMAHFDLVRVYGKTYTAPDAPNSLGIPVVTTVLGSDSKLIRNTVSEVYTQVIKDLNEAINSKALSESSTPGYINLWAAKALLSRVYLTQGDNQKSLDVAEDIIKNSPYKLWKNEEYVGAWSKISGVHSNEMLFEIAITGSTDWTDREGIAYLYNEDGYADIIATKKFLDLLNEDPNDVRLGVFLAPTTKDFKKLYGTNTVFLNKYPADGLSDLRYNNVPLVRLSEVYLNAAEAAAKLGNQNDKAVEYLDAIVKRANPNKTVKGTTVTVDRVLLERRKELIGEGHRFFDAMRNNETVIRYTSKEDQGWQQALKEEARSFNRDFYKTLLPIPQDEIDANPSMKDQQNTGY,not soluble
10,MGSDKIHHHHHHMKVFFVVDIKSGKVVAGKGGERESYPPITAISRLVSSDDALKVIEEIKPRFLYAADLDRIVGLGDNFSLLSKLSKRVEELIADCGFRSPEELEKLPFTPVVGTETFDITQLDRKCYVSLDFKEKFLDASGKFESWEEVVKFLNSFDLYGLIVLPIHAVGAMKPDLSVLTKTLELSEHPVMLGGGISGVEDLERLKEMGCSGVLVATAVHKGKIPLDVVRKGKF,not soluble
11,MGSDKIHHHHHHMKVLEKDYQINSVRKAIDAGANSIIALPTGGGKSICILKLCQAMPDKKVVISLRNAALVPQLLHTLTINGLSVSVVKSGYKYIAGGDVTLVMEQSFGRRKHLNIQCDVLLRDEYHVGCMGGVYIAMREELSPDLIIGLTATPIDRLGVYIDKSMQLIEETTTKMLIEAGELAKPVYKVPSLSQEIDYSAVKMYRGDFSVSGLDNILLEHCSLVAQQTVDDALSHGRKVMLFANSINHVESLSEAFDLLGIEHERVHSQRSSDENDESIRRYKSNEVRLIINMSMLTIGFDDPTTDCVVLARPTKILRLYLQIIGRCLRASKGKTSALILDLAQCISTHGFAEDLRDFTRKTSKSAAIMAERLSVTNIGQFVDGEFTYNESIERKVVKKRAPVIRRKPRDGLVASKELVDRAASNRAAALLRLNPRMEKLVSTIELVNIVYEQQDESSKMLDEVAMVKLVALIGFAYSDALVDSCTALVEGLHAQNQSIRGLPLRVSNLITSIAMQDLGVKEVVTKS,not soluble
12,MGSDKIHHHHHHMKVLNLLSAGGIGGIEQLCSNIAKYANYDNTFCFMFEDGQIYKEMKKSGADVISFAECSSKKISKKRWESLCELAEKADIIVTHHCTIALHIYYCALKKRFKNKKFVMTIHSCFDPELNYNYGSWIKNKIAKWNIEEALKISDKIIFVSEAGRRSYLDNFNIDVTKTKVIYNGVEVSAISIDSIKLENNYTRITYIGRVEKIKGLDLFVCALKKLLNDDSNIKVWIIGDGSFRNELEMLVQKLDLTGVIEFTGAKRNIGDYLRKTDLFIYPSTCQEVFGISIVEAMSYGVPCVANNVGGIPEIIENDYNGFITSKTNDDELYKCMYKFIKLDPKLITQMRNNCLLTAEKFSINCTIDNLEKTLKGMM,not soluble
13,MGSDKIHHHHHHMKVTILLPAYNAALYLRDSLDSIMRQAFKDFDVLLIDDGSMDDTSKIAIEYSNIDRRIKYYKNEKNIGLIKTLNKGLSLAKGEYIVRMDADDIMFDDRLYKQVKYMDSNPECFVCGGQMEYIGGLTGMAPILPQKYEDLLYLSLINCPLYHPTTIIRNSAIKQFGLKYNDSYKHAEDYKFWSDIIFSHPNSIANIKDVVLFYRISNNQITAKYSDEQDLISKIVRRENVQHVLVPYGIKLPEVVNCEIIEKVSSLIRKEHIDAAEILTLVLCMLYMSMENSYVRIKHFILSNDYSLFVKNSSRIKLGLSVLLSGIFSNRGKRFVI,not soluble
14,MGSDKIHHHHHHMKVTNYQGATIDPYSKGLGMVPGTSIQLTDAARLEWNLLNEDVSLPAAVLYADRVEHNLKWMQAFVAEYGVKLAPHGKTTMAPQLFRRQLETGAWGITLATAHQVRAAYHGGVSRVLMANQLVGRRNMMMVAELLSDPEFEFFCLVDSVEGVEQLGEFFKSVNKQLQVLLELGVPGGRTGVRDAAQRNAVLEAITRYPDTLKLAGVELYEGVLKEEHEVREFLQSAVAVTRELVEQERFARAPAVLSGAGSAWYDVVAEEFVKASETGKVEVVLRPGCYLTHDVGIYRKAQTDIFARNPVAKKMGEGLLPALQLWAYVQSIPEPDRAIIGLGKRDSAFDAGMPEPARHYRPGNEAPRDIAASEGWEIFGLMDQHAYLRIPAGADLKVGDMIAFDISHPCLTFDKWRQVLVVDPAYRVTEVIETFF,not soluble
15,MGSDKIHHHHHHMKYALGNILYYWPKEDVEAFYQAAVNSSADIVYLGETVCSKRRLMKVADWFNVAREVANSGKQVVISTLALLQAPSELTELRRYVENGEFLLEANDLGAVNIAAERNLPFVAGHALNCYNAYTLRVLHKQGMVRWCMPVELSRDWLQNLLNQCEELGFRHQFEVEVLSYGHLPLAYSARCFTARSEDRPKDECETCCLSYPQGRKMLSQENQQVFVLNGIQTQSGYCYNLGNELTSMRDLVDIVRLSPNDITTPAMLDTFRANEQGNMPLTLQNQADCNGYWRRVAGLELVQ,not soluble
16,MGSDKIHHHHHHMKYFVSRSIYTFNSGVEHSQANRTLLFNASGDQARYVTRDYNRLWVRDAERVNLNSTNVLNMYDFFQGTSAVECVQLPVREFKQLALNEYQLVEHGADYSTVDHAGRQLARINIMPGTVGLVGDIEYYDRFETVVSRENFDWRGFKSSIDYFHPDGSLGVRRFLNLAGEVVLENTYMNVEGQLQPTMWKLVNYHGKNYRFDTEDQLFLFFLNEVTQQTTDNVVVSDHRELDYVIADVENATSKWVALHGSHVDQGGTPFAAYSIALQIRAQDFDGIIVPTQEQQLELKEQFPELNVQVAPDVAISPELINSKPVWLRDRIAGRIIFSGRLEADKRPMEALKAFFKVLEQFLTLRWNLGDILTTKTC,not soluble
